In PMC10247153, “Chromatin Sensing by the Auxiliary Domains of KDM5C Regulates Its Demethylase Activity and Is Disrupted by X-linked Intellectual Disability Mutations” (Journal of molecular biology, 2022):
No end group written: not given here. Me3 = trimethyl; Me2 = dimethyl

What was measured:
Conditions in all cases: both partners purified
[1] = biological target: T1, PHD1 (KDM5C residues 318–378) (human, UniProt P41229-1 318-378); experiment: NMR titration; 2D 1H-15N HSQC of 200 μM 15N-PHD1 with increasing peptide up to 1:5 PHD1:peptide; 50 mM HEPES pH 7.5, 50 mM KCl, 5 mM BME, 50 μM ZnCl2, 5% D2O, 298 K; Kd from chemical shift change of one residue (I361 or D343), quadratic binding equation
T1 construct: KDM5C, human, PHD1 domain, residues 318-378; 15N-labelled (or 15N,13C) for NMR; also called PHD1 domain of KDM5C; source: E. coli BL21(DE3), M9 minimal medium, purified (Ni-NTA, MonoQ flow-through); not shown: 6xHis, N-terminal, cleaved; SUMO (Smt3), N-terminal, cleaved
T1 sequence (looked up): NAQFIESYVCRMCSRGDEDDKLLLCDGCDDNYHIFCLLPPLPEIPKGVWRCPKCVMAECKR

PHD1 D343A mutant = biological target: T2, PHD1 D343A mutant (human, UniProt P41229-1 318-378, D343A); experiment: as above
T2 construct: KDM5C, human, PHD1 domain, residues 318-378 (limits as told for wild-type PHD1)
T2 sequence (looked up): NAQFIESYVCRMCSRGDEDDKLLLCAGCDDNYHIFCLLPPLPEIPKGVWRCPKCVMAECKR

Avitag-PHD1 = biological target: T3, Avitag-PHD1 (human, UniProt P41229-1 318-378, biotin on the Avitag (BirA co-expression)); experiment: BLI; biotinylated Avitag-PHD1 (100 nM) loaded on streptavidin biosensors; 100 μM peptide; 50 mM HEPES pH 8, 50 mM KCl, 50 μM ZnCl2, 5 mM BME, 0.05% Tween-20; 25 °C; two phase exponential fit
T3 construct: KDM5C, human, PHD1 domain, residues 318-378; 6xHis-SUMO-Avitag-(GS)2-PHD1 before cleavage by SenP1; also called biotinylated Avitag-PHD1; Avitag-(GS)2-PHD1; source: E. coli BL21(DE3), co-expressed with BirA, purified (Ni-NTA, MonoQ flow-through); not shown: 6xHis, N-terminal, cleaved; SUMO (Smt3), N-terminal, cleaved; Avitag-(GS)2, N-terminal, kept
T3 sequence (looked up): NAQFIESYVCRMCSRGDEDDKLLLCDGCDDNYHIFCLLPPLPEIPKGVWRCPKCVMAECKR

B1: KDM5C (199–218) peptide (peptide)
peptide: Ac-QSVQPSKFNSYGRRAKRLQP-NH2
notes: source: synthetic peptide (GenScript)
- fold lower affinity than the H3 tail [1]: ~3 fold

B2: H3K4me1 (1–18) peptide (peptide, UniProt P68431 2-19, looked up)
peptide: ARTK(Me)QTARKSTGGKAPRK
notes: histone H3 N-terminal tail, residues 1-18; source: synthetic peptide (GenScript)
- binding result [1]: binds

B3: H3K4me2 (1–18) peptide (peptide, UniProt P68431 2-19, looked up)
peptide: ARTK(Me2)QTARKSTGGKAPRK
notes: as for B2
- binding result [1]: binds

B4: H3K4me3 (1–18) peptide (peptide, UniProt P68431 2-19, looked up)
peptide: ARTK(Me3)QTARKSTGGKAPRK
notes: as for B2
- binding result [1]: binds

B5: H3 (1–18) tail peptide (peptide, UniProt P68431 2-19, looked up)
peptide: ARTKQTARKSTGGKAPRK
notes: histone H3 N-terminal tail, residues 1-18; also called H3 (1–18) peptide; H3K4me0 (1–18); source: synthetic peptide (GenScript)
- fold decrease in affinity against wild-type PHD1 (PHD1 D343A mutant): ≥ 10 fold
- Kd [1]: 130 µM

B6: KDM5C (295–314) peptide (peptide)
peptide: Ac-KEELSHSPEPCTKMTMRLRR-NH2
notes: KDM5C, human, ARID-PHD1 linker, residues 295-314; source: synthetic peptide (GenScript)
- binding result (Avitag-PHD1): binds
